What was measured:
[1] = tested on: AncSZ; assay: phosphorylation enrichment, bacterial display (enrichment ratio); higher = better substrate or ligand; peptides without Tyr show the background
[2] = molecular target: EPHB1 (UniProt P54762); assay: as above
[3] = molecular target: EPHB2 (UniProt P29323); assay: as above
[4] = molecular target: FGFR1 (UniProt P11362); assay: as above
[5] = molecular target: FGFR3 (UniProt P22607); assay: as above
[6] = tested on: Fer (mouse); assay: as above
[7] = molecular target: Fes (UniProt P07332); assay: as above
Fes, sequence (P07332 whole entry, looked up): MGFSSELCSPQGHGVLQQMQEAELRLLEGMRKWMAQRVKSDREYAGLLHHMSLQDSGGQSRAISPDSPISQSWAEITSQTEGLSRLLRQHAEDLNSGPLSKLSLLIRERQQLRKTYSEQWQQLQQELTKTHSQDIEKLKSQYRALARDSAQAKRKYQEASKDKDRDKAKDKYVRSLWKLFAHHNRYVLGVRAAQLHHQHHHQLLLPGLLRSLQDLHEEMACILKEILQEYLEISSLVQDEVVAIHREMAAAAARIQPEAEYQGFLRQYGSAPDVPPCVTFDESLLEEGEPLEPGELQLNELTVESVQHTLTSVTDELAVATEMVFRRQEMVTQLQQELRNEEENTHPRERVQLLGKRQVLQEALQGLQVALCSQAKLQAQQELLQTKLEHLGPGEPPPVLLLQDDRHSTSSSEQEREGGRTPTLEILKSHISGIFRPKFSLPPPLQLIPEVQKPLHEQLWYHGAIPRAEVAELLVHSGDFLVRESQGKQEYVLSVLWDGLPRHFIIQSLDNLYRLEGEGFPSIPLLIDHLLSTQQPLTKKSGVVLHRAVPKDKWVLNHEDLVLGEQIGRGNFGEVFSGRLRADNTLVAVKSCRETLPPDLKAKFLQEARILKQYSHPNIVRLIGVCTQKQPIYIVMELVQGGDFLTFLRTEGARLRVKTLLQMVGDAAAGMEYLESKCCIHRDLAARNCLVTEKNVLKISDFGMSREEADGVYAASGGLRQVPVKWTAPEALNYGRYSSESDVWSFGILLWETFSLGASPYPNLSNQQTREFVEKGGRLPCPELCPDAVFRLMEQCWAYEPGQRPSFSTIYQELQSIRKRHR

[8] = molecular target: Fyn (UniProt P06241); assay: as above
Fyn, sequence (P06241 whole entry, looked up): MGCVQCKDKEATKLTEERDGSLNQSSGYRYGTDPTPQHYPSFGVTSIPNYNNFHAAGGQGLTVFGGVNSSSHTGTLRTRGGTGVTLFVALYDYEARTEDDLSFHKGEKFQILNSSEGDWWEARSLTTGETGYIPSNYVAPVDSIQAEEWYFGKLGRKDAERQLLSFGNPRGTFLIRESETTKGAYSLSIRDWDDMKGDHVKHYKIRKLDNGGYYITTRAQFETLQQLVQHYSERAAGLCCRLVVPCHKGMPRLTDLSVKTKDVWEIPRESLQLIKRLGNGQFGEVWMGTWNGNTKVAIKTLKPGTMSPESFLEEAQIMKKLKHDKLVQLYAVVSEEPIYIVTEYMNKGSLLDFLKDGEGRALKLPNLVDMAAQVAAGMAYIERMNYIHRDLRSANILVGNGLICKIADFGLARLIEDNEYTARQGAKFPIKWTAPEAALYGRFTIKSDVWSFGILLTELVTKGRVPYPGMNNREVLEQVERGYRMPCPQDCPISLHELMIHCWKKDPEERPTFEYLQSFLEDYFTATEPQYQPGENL

[9] = molecular target: Hck (UniProt P08631); assay: as above
Hck, sequence (P08631 whole entry, looked up): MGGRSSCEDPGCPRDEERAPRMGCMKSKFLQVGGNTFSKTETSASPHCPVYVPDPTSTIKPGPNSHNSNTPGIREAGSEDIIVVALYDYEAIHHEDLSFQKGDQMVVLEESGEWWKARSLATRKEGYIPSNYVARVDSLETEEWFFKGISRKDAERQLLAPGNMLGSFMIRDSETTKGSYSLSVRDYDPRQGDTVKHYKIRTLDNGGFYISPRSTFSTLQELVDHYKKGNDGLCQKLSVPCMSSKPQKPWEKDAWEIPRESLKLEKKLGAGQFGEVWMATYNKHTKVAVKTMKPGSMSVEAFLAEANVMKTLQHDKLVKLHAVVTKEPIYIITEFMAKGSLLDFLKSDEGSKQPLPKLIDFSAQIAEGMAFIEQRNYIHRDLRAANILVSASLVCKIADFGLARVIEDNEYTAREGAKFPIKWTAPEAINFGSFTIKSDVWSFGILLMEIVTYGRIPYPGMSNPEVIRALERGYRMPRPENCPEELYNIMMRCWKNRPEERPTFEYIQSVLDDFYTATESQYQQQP

[10] = molecular target: Jak2 (UniProt O60674); assay: as above
[11] = molecular target: MERTK (UniProt Q12866); assay: as above
[12] = tested on: c-Abl (mouse); assay: as above
[13] = tested on: c-Src; assay: as above
[14] = molecular target: Grb2 SH2 (UniProt P62993); assay: SH2 binding enrichment of the phosphorylated peptide, bacterial display (enrichment ratio); higher = better substrate or ligand; peptides without Tyr show the background
Grb2 SH2, sequence (P62993 whole entry, looked up): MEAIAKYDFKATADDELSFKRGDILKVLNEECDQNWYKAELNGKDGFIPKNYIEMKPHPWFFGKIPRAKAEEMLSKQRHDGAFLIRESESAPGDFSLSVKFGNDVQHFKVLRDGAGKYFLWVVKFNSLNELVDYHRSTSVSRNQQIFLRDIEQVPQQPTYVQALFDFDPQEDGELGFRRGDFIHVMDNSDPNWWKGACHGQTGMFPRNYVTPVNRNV

[15] = molecular target: SHP2-C SH2; assay: as above
[16] = molecular target: c-Src SH2; assay: as above
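Throughout, for SH2 binding enrichment of the phosphorylated peptide, bacterial display: peptide library displayed on the E. coli surface as eCPX fusions, selected cells deep-sequenced, score is each peptide's frequency after selection divided by its frequency in the input.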
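Throughout, for phosphorylation enrichment, bacterial display: 11-residue human phosphosite peptides and single-mutation variants displayed on the E. coli surface, counted by deep sequencing, each peptide's frequency after selection divided by its frequency in the unselected input library; frequency after pTyr selection over input frequency; kinase dosed for 20-30% of maximal phosphorylation in three min.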

FGFR3, sequence (P22607 whole entry, looked up): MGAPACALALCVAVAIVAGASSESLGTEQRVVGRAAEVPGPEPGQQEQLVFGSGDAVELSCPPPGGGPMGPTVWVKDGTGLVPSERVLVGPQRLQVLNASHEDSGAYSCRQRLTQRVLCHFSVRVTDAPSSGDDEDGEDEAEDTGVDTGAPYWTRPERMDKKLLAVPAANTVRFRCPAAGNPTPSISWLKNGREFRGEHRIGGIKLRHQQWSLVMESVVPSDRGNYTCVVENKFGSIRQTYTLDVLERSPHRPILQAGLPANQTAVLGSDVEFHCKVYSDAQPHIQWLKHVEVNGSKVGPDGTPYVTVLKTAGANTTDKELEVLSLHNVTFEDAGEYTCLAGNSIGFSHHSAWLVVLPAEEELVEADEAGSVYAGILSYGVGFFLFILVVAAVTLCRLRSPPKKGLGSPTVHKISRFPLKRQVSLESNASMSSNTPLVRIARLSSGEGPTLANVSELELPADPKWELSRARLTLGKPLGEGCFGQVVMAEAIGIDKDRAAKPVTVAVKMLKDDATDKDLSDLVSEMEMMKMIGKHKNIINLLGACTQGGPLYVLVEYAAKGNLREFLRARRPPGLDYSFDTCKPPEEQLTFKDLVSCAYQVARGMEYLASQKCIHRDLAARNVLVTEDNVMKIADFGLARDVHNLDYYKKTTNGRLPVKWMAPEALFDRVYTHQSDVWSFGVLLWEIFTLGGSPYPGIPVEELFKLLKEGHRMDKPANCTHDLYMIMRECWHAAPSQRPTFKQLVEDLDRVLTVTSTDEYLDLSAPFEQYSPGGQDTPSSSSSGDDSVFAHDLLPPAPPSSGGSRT
FGFR1, sequence (P11362 whole entry, looked up): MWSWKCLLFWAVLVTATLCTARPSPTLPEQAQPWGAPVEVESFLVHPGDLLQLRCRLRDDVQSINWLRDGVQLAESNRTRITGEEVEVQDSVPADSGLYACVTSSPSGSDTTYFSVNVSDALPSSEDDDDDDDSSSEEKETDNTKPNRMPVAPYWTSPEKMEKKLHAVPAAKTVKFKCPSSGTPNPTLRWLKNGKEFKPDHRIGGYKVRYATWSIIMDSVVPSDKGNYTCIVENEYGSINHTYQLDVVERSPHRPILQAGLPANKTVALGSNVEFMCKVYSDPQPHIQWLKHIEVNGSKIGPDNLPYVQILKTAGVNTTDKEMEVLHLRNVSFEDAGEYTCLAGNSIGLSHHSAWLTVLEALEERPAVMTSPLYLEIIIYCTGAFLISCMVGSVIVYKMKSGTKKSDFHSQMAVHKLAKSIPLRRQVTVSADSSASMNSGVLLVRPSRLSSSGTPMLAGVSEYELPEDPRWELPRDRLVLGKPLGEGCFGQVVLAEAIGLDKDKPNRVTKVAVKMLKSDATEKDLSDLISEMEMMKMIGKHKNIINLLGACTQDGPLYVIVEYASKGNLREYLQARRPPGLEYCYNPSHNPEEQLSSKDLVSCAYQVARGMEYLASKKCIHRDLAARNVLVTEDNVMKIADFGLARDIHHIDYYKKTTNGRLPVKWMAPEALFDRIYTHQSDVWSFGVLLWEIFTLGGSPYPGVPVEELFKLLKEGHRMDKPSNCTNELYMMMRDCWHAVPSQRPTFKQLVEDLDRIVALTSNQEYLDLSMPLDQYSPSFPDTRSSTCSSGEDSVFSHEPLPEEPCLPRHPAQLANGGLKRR
EPHB1, sequence (P54762 whole entry, looked up): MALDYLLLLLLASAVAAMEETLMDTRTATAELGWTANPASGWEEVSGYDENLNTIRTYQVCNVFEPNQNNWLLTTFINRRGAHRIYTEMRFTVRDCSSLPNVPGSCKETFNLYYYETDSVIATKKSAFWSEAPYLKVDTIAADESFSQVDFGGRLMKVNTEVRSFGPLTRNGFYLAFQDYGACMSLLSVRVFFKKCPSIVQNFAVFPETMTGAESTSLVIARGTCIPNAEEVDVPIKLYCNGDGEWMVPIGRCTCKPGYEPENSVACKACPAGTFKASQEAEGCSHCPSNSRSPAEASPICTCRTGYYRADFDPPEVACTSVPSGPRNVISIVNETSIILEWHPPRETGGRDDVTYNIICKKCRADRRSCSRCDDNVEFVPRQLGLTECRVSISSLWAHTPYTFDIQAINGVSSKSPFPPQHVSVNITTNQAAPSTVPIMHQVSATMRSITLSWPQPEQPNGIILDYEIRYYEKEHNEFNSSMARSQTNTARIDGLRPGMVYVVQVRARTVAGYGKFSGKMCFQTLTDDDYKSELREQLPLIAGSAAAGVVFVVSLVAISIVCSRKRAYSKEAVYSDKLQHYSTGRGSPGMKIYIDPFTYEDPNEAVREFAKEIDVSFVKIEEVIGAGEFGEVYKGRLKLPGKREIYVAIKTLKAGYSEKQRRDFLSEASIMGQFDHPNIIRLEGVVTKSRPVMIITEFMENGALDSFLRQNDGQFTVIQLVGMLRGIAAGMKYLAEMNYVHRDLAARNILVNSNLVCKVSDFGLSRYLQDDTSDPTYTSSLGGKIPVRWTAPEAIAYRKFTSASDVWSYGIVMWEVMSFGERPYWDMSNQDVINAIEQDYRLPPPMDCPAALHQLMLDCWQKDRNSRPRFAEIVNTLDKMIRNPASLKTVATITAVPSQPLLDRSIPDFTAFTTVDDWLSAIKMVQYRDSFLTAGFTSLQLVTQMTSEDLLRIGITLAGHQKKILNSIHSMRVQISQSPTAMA

Row | Sequence | phosphorylation enrichment [1] | phosphorylation enrichment [2] | phosphorylation enrichment [3] | phosphorylation enrichment [4] | phosphorylation enrichment [5] | phosphorylation enrichment [6] | phosphorylation enrichment [7] | phosphorylation enrichment [8] | phosphorylation enrichment [9] | phosphorylation enrichment [10] | phosphorylation enrichment [11] | phosphorylation enrichment [12] | phosphorylation enrichment [13] | SH2 binding enrichment [14] | SH2 binding enrichment [15] | SH2 binding enrichment [16]
1 | GEFHVYRHLRR [PRKRIP1_Y82] | 1.3 | 0.43 | 0.465 | 0.57 | 0.581 | 0.4 | 0.863 | 0.484 | 0.57 | 0.896 | 0.494 | 0.601 | 0.518 | 0.601 | 0.358 | 0.501
2 | GEIQEYGAPSD [ABCC1_Y1508] | 1.07 | 0.493 | 0.544 | 0.523 | 0.662 | 0.481 | 1.05 | 0.506 | 0.505 | 0.891 | 0.476 | 0.757 | 0.438 | 0.745 | 0.648 | 0.507
3 | GFCSWYRGWAP [TIMP3_Y195_YF] | 1.27 | 0.763 | 0.597 | 0.514 | 0.813 | 0.593 | 1.27 | 0.472 | 0.497 | 1.2 | 0.498 | 0.912 | 0.773 | 0.953 | 0.968 | 0.609
4 | GFIISYREEEQ | 1.41 | 0.495 | 0.5 | 0.478 | 0.729 | 0.644 | 1.27 | 0.488 | 0.456 | 1.34 | 0.313 | 0.598 | 0.399 | 0.672 | 0.633 | 0.581
5 | GFITSYREEEQ | 1.19 | 0.63 | 0.775 | 0.468 | 0.631 | 0.488 | 1.14 | 0.494 | 0.517 | 1.04 | 0.489 | 0.769 | 0.48 | 0.681 | 0.722 | 0.502
6 | GGDGSYVSVPL [TNNI3K_Y425_S430L] | 0.692 | 0.414 | 0.509 | 0.5 | 0.573 | 0.486 | 0.599 | 0.406 | 0.437 | 0.558 | 0.474 | 0.471 | 0.38 | 0.887 | 0.682 | 0.631
7 | GGEAIYAAPFA [Abl_opt_1995] | 4 | 20.2 | 27.9 | 2.48 | 2.05 | 20.5 | 1.11 | 13.1 | 12.7 | 0.747 | 13.5 | 35.6 | 9.05 | 0.778 | 0.416 | 0.486
8 | GGGMIYPLDLF | 0.913 | 0.527 | 0.496 | 0.503 | 0.637 | 0.534 | 1.02 | 0.6 | 0.551 | 0.941 | 0.688 | 0.804 | 0.515 | 0.959 | 0.562 | 0.556
9 | GGRIDYIAGLV [APRT_Y60_D65V] | 1.19 | 0.562 | 0.604 | 0.496 | 0.717 | 0.715 | 1.11 | 0.418 | 0.568 | 0.871 | 0.389 | 0.573 | 0.423 | 0.692 | 0.582 | 0.382
10 | GGSSPYSRRLP [CDK13_Y351] | 0.549 | 0.327 | 0.314 | 0.393 | 0.39 | 0.317 | 0.501 | 0.403 | 0.358 | 0.4 | 0.414 | 0.504 | 0.393 | 0.709 | 0.609 | 0.525
11 | GHEYIYVDPMQ [PDGFRA_Y574] | 5.16 | 7.52 | 10.2 | 14.4 | 11.6 | 2.92 | 0.917 | 3.2 | 3.75 | 1.83 | 4.29 | 8.98 | 3.65 | 0.873 | 0.633 | 0.749
12 | GIVEDYRPTFF [ACVRL1_Y421_P424T_YF] | 0.897 | 0.578 | 0.549 | 0.592 | 0.651 | 0.468 | 1.04 | 0.394 | 0.416 | 0.838 | 0.452 | 0.811 | 0.45 | 0.846 | 0.695 | 0.447
13 | GKANRYFSPNF [PTEN_Y336_D331G] | 0.622 | 0.379 | 0.424 | 0.455 | 0.685 | 0.477 | 0.612 | 0.479 | 0.398 | 0.811 | 0.46 | 0.779 | 0.528 | 0.967 | 1.06 | 0.525
14 | GLALRCLSDHS [VWF_Y1584_Y1584C] | 0.86 | 0.592 | 0.559 | 0.551 | 0.711 | 0.518 | 1.16 | 0.515 | 0.59 | 0.961 | 0.422 | 0.718 | 0.503 | 0.815 | 0.654 | 0.41
15 | GLALRYLSDHS [VWF_Y1584] | 0.873 | 0.518 | 0.471 | 0.565 | 0.583 | 0.723 | 0.838 | 0.465 | 0.549 | 0.898 | 0.38 | 0.501 | 0.539 | 0.732 | 0.557 | 0.444
16 | GLDGSYLLRFS [SH2D1A_Y29_D33Y_YF] | 0.839 | 0.44 | 0.518 | 0.385 | 0.546 | 0.424 | 0.965 | 0.435 | 0.408 | 0.843 | 0.414 | 0.644 | 0.465 | 0.885 | 0.937 | 0.944
17 | GLIPAYHRFIM [NMNAT1_Y64_V67F] | 0.734 | 0.521 | 0.423 | 0.553 | 0.687 | 0.418 | 0.822 | 0.535 | 0.494 | 1.31 | 0.593 | 0.619 | 0.616 | 1.39 | 1.37 | 1.44

Row | Sequence | phosphorylation enrichment [1] | phosphorylation enrichment [2] | phosphorylation enrichment [3] | phosphorylation enrichment [4] | phosphorylation enrichment [5] | phosphorylation enrichment [6] | phosphorylation enrichment [7] | phosphorylation enrichment [8] | phosphorylation enrichment [9] | phosphorylation enrichment [10] | phosphorylation enrichment [11] | phosphorylation enrichment [12] | phosphorylation enrichment [13] | SH2 binding enrichment [14] | SH2 binding enrichment [15] | SH2 binding enrichment [16]
18 | GLIPAYHRVIM [NMNAT1_Y64] | 0.881 | 0.571 | 0.504 | 0.572 | 0.612 | 0.502 | 0.963 | 0.558 | 0.543 | 1.16 | 0.408 | 0.662 | 0.414 | 1.07 | 0.856 | 1.2
19 | GLVFLYVEKNQ [PRELP_Y156_M157V] | 1.22 | 0.6 | 0.622 | 0.44 | 0.902 | 0.575 | 1.29 | 0.505 | 0.532 | 1.15 | 0.337 | 0.759 | 0.479 | 1.12 | 1.19 | 0.663
20 | GPRKAYELSQR [SETX_Y1297] | 0.464 | 0.343 | 0.328 | 0.422 | 0.355 | 0.381 | 0.539 | 0.401 | 0.389 | 0.558 | 0.409 | 0.492 | 0.412 | 0.982 | 0.707 | 0.422
21 | GRDQPYSGTGD [TYRO3_Y828_A831T] | 0.667 | 0.385 | 0.43 | 0.49 | 0.52 | 0.526 | 0.757 | 0.549 | 0.481 | 0.713 | 0.492 | 0.673 | 0.441 | 1.02 | 0.49 | 0.518
22 | GRQWNYVASML [KLHL4_Y552_S557L] | 0.731 | 0.405 | 0.481 | 0.382 | 0.565 | 0.366 | 0.809 | 0.434 | 0.418 | 0.737 | 0.367 | 0.591 | 0.391 | 1.25 | 1.33 | 0.945
23 | GRQWNYVASMS [KLHL4_Y552] | 0.799 | 0.508 | 0.549 | 0.434 | 0.539 | 0.355 | 0.754 | 0.419 | 0.4 | 0.618 | 0.395 | 0.719 | 0.371 | 1.04 | 0.966 | 0.767
24 | GRRNTCYASIA [ACADM_Y352_Y352C] | 0.557 | 0.336 | 0.365 | 0.333 | 0.432 | 0.33 | 0.644 | 0.442 | 0.477 | 0.48 | 0.407 | 0.5 | 0.495 | 0.972 | 7.14 | 3.58
25 | GRRNTYYASIA [ACADM_Y352] | 0.653 | 0.35 | 0.477 | 0.45 | 0.454 | 0.414 | 0.849 | 0.532 | 0.56 | 0.735 | 0.774 | 0.572 | 0.638 | 0.779 | 0.624 | 0.999
26 | GRVFVYHLSEQ [ITGAE_Y551_R552H_YF] | 0.986 | 0.508 | 0.608 | 0.593 | 0.626 | 0.444 | 0.893 | 0.68 | 0.579 | 0.684 | 0.44 | 0.471 | 0.629 | 0.769 | 1.28 | 0.614
27 | GSQERDFELVE [TSC2_Y407_Y407D] | 1.08 | 0.466 | 0.492 | 0.489 | 0.717 | 0.46 | 1.04 | 0.522 | 0.493 | 1.07 | 0.484 | 0.69 | 0.523 | 0.881 | 0.612 | 0.632
28 | GVASDYKCIDP [VPS13B_Y1991] | 1.08 | 0.739 | 0.589 | 0.724 | 0.827 | 0.587 | 1.01 | 0.548 | 0.747 | 0.703 | 0.365 | 0.496 | 0.427 | 0.888 | 0.524 | 0.65
29 | GVLKEYGVKVL [CPS1_Y529] | 0.52 | 0.369 | 0.322 | 0.384 | 0.569 | 0.362 | 0.642 | 0.378 | 0.431 | 0.391 | 0.488 | 0.334 | 0.424 | 0.863 | 0.688 | 0.408
30 | GVTLLCFGRFN [ADGRD1_Y85_Y85C_YF] | 1.14 | 0.732 | 0.669 | 0.524 | 0.885 | 0.498 | 1.53 | 0.443 | 0.587 | 1.09 | 0.384 | 0.9 | 0.388 | 0.922 | 0.863 | 0.465
31 | GVTLLYFGRFN [ADGRD1_Y85_YF] | 1.54 | 0.501 | 0.676 | 0.448 | 0.794 | 0.497 | 1.34 | 0.562 | 0.541 | 1.32 | 0.389 | 0.817 | 0.426 | 1.27 | 1.41 | 0.981
32 | GYEEAYSVSKK [PAFAH1B1_Y28_F31S] | 0.893 | 0.491 | 0.432 | 0.364 | 0.607 | 0.469 | 1.01 | 0.435 | 0.447 | 0.661 | 0.367 | 0.536 | 0.601 | 0.798 | 0.796 | 1.85
33 | GYITSYREEEQ | 1.29 | 0.677 | 0.659 | 0.595 | 0.711 | 0.616 | 1.37 | 0.554 | 0.543 | 1.15 | 0.442 | 0.879 | 0.463 | 0.646 | 0.573 | 0.49
34 | GYKVRYATGSI [FGFR1_Y210_W213G] | 0.499 | 0.537 | 0.479 | 0.416 | 0.423 | 0.34 | 0.625 | 0.401 | 0.434 | 0.456 | 0.32 | 0.478 | 0.398 | 1.1 | 1.11 | 1.03
